From PMC7405475

Target: His6-maltose binding protein-SARS-CoV-2 N3 (spacer B/N3 region, residues 365-419) (SARS-CoV-2) (UniProt P0DTC9)
Experiment: SEC-MALS

His6-maltose binding protein-SARS-CoV-2 N3 (spacer B/N3 region, residues 365-419) (from UniProt P0DTC9 365-419) (domain or fragment)
stoichiometry N: 2
